Measured values taken from patent US7271245B2, “Methods and compositions for inhibition of metastasis” (The Scripps Research Institute, priority 2004, dated 2007).

Legend:
Assay in all cases: Flow cytometry, binding to other RGD-recognizing integrins
[1] = biological target: T1, alpha IIb beta 3 (Homo sapiens, UniProt P05106+P08514)
T1 construct: M21-LIIb cells (αIIbβ3, no αv integrin); expressed in transfected cells; host or cells: M21-LIIb human melanoma cells
Protocol: (§1) Flow cytometry. scFv binding to human tumor cells was analyzed by flow cytometry, initially with cloned scFv phage and then with purified scFv protein. Per sample, 2×10^5 tumor cells were blocked with goat serum and incubated either with scFv phage (2-5×10^10) (1 h at RT) followed by mouse anti-M13 mAb (Serotec) (30 min on ice) and goat FITC-anti mouse (Pierce) (30 min on ice), or with purified scFv (1.25 to 40 μg/ml, routinely 10 to 15 μg/ml) (45 min on ice), followed by mouse anti-FLAG mAb M2 (Sigma) (30 min on ice) and goat FITC-anti mouse. Binding/washing buffer was TBS with or without divalent cations (1 mM Ca^2+, 1 mM Mg^2+, 0.2 mM Mn^2+). Alternatively, tumor cells were washed in 10 ml of plasma (prepared freshly from human blood anticoagulated with 50 nM D-Phe-D-Pro-D-arginyl chloromethyl ketone, PPACK, Felding-Habermann et al., J. Biol. Chem. 271: 5892-5900, 1996), resuspended in plasma and then incubated sequentially, without washing, with purified scFv (45 min on ice), followed by anti-FLAG M2 (30 min on ice) and FITC-anti mouse (30 min on ice). All samples were counter stained with propidium iodide (PI) and analyzed on a Becton-Dickinson FACScan, with live gate set to exclude PI positive cells.
(§2) To generate therapeutic reagents that specifically react with activated αvβ3, a phage display library of single chain antibody fragments (scFv) was exploited. This library was derived from cancer patient blood lymphocyte cDNA libraries and allowed us to test the hypothesis that the expressed immune repertoire contains antibodies that recognize integrin αvβ3, and distinguish between its activated and non-activated forms. Mao et al., Proc. Natl. Acad. Sci. U.S.A 96: 6953-6958, 1999. A subtractive panning approach was designed based on variants of MDA-MB 435 human breast cancer cells. […] Apparently, these cells are selected during metastasis, as variant cells isolated from lung and bone metastases in immune deficient mice express constitutively activated αvβ3. To establish a cell population that uniformly expresses non-activated αvβ3, MDA-MB 435 parental cells were cloned by limiting dilution, and clones tested for αvβ3 functionality. […] A cell line, MDA-MB 435 Lung-Lung, was established which expressed αvβ3 in a constitutively activated form. This variant stems from a lung metastase of an immune deficient mouse whose mammary fat pad had been injected with parental MDA-MB 435 cells. […] After 5 rounds of subtracting the phage library on Parent Combo cells and panning on Lung-Lung cells, scFv clones were analyzed by flow cytometry for their ability to bind integrin αvβ3 on human tumor cells, and to distinguish between the activated and non-activated forms of the receptor (FIG. 1). […]

[2] = biological target: T2, integrin αvβ5 (Homo sapiens, UniProt P06756+P18084)
T2 construct: UCLA-P3 lung adenocarcinoma cells (αv integrins, but no αvβ3); endogenous in cells; host or cells: UCLA-P3 human lung adenocarcinoma cells
Protocol: as §1, §2

[3] = biological target: T3, α5β1 (Homo sapiens, UniProt P05556+P08648)
T3 construct: endogenous in cells
Protocol: as §1, §2

[4] = biological target: T4, αvβ1 (Homo sapiens, UniProt P05556+P06756)
T4 construct: UCLA-P3 lung adenocarcinoma cells (αv integrins, but no αvβ3); endogenous in cells; host or cells: UCLA-P3 human lung adenocarcinoma cells
Protocol: as §1, §2

T3 sequence (P08648 42-894 limits assumed): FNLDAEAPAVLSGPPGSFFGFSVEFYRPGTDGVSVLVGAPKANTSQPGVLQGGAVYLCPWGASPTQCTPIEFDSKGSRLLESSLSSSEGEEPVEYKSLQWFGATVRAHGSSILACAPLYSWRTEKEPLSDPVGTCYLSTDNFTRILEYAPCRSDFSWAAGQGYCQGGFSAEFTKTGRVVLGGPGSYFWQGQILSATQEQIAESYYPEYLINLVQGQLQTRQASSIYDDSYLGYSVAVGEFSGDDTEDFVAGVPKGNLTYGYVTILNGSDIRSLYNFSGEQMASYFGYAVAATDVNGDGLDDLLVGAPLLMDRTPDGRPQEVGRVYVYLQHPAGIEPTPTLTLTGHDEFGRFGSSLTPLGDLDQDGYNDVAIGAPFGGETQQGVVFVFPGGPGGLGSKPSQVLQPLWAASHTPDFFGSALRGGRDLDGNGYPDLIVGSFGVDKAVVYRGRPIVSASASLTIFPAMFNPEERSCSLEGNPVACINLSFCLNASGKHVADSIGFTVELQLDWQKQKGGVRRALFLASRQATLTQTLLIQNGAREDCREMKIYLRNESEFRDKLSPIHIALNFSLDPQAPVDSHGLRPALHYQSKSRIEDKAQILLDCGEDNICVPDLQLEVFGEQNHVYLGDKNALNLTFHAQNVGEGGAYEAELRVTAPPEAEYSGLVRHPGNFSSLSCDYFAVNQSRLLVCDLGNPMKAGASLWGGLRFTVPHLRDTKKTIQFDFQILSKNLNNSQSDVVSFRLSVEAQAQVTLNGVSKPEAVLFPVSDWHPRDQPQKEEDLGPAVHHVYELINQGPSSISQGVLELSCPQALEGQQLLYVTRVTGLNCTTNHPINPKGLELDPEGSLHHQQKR
T3 sequence (P08648 895-1049 partner limits assumed): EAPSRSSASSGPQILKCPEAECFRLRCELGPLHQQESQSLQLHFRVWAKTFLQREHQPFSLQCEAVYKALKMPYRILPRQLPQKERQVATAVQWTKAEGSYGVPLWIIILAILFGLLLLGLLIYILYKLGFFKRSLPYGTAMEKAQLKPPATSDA
T3 sequence (P05556 21-798): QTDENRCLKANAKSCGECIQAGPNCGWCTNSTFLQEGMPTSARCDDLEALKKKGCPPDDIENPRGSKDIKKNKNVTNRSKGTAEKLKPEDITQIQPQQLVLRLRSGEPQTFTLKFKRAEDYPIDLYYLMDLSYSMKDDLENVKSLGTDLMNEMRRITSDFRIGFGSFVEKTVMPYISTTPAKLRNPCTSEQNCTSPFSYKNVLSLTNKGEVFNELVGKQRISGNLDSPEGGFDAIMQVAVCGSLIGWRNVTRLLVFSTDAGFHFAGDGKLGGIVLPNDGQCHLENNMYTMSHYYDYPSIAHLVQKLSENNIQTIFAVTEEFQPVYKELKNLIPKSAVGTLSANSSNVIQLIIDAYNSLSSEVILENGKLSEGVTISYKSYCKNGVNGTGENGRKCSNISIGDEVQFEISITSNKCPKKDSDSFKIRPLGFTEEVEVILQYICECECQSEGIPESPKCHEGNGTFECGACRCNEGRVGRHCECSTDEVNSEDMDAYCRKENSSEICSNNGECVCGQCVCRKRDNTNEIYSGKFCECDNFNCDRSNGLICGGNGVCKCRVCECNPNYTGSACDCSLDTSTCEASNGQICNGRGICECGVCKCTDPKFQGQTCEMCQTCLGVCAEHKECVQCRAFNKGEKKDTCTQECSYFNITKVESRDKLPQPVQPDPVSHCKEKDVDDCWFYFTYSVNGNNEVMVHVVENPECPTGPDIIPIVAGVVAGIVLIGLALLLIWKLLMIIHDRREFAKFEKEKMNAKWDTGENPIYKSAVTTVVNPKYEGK
T2 sequence (P06756 31-889 limits assumed): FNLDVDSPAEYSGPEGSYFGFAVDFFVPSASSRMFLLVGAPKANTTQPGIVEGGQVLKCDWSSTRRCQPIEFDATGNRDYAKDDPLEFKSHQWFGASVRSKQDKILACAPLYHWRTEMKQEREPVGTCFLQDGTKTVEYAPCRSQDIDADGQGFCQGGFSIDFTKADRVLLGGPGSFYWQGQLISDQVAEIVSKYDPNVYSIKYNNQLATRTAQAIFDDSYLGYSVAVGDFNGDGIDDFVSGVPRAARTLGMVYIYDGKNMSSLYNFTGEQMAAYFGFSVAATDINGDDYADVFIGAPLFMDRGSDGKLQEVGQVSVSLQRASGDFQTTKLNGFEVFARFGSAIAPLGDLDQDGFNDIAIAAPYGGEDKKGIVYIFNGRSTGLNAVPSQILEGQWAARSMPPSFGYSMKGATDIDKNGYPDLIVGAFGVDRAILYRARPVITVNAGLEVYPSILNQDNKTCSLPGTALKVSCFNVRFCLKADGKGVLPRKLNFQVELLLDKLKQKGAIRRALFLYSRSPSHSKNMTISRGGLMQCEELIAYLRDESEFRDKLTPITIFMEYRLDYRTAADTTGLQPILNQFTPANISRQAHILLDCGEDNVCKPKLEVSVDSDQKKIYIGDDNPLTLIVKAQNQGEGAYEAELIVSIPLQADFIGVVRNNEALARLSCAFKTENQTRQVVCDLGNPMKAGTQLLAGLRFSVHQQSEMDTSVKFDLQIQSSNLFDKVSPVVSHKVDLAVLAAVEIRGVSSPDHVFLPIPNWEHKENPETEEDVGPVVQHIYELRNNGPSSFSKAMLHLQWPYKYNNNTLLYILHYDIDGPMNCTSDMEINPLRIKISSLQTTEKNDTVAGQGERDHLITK
T2 sequence (P06756 891-1048 partner limits assumed): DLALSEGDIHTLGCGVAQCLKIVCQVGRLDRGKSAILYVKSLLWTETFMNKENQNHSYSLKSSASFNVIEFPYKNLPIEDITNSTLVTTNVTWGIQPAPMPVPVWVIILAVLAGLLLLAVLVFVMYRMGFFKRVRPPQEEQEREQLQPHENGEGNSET
T2 sequence (P18084 24-799): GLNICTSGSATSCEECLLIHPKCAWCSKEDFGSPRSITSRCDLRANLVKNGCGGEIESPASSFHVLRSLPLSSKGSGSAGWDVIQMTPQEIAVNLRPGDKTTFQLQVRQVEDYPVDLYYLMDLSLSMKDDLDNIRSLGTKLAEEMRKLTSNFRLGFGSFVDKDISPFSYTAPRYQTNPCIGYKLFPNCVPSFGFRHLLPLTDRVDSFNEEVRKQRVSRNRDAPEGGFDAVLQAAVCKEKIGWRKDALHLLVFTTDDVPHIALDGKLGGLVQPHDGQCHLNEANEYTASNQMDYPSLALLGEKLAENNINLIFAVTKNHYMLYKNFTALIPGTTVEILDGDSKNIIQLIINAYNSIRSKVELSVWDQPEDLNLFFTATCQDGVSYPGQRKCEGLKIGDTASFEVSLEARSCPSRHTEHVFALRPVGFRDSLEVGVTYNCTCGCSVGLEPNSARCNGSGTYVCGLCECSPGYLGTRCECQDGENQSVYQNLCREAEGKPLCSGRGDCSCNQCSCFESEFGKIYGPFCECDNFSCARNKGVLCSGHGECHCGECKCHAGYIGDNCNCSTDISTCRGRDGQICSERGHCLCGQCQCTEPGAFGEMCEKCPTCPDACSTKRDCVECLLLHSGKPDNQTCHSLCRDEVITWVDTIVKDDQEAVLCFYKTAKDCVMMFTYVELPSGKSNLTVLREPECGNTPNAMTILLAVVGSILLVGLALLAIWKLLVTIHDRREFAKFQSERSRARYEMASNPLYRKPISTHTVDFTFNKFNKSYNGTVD
T4 sequence (P06756 31-889 limits assumed): as the sequence (P06756 31-889 limits assumed) above
T4 sequence (P06756 891-1048 partner limits assumed): as the sequence (P06756 891-1048 partner limits assumed) above
T4 sequence (P05556 21-798): as the sequence (P05556 21-798) above

binding to alpha IIb beta 3 [1]: do not bind
binding to integrin αvβ5 [2]: do not bind
binding to α5β1 [3]: do not bind
binding to αvβ1 [4]: do not bind
B1: Bc-12: patient derived human scFv antibody against activated αvβ3 with RGD motif in CDR-H3; cDNA ATCC PTA-6303 (protein)
scFv: MAQVQLVQSGAEVKKPGASVKVSCKASGYTFSNYGITWVRQAPGQGLEWMGWINNGNTHYAQKFQGRVTMTTDTSTSTAYMELRSLRSDDTAVYYCARDPRGDDEPYWGQGTLVTVSSGGGGSGGGGSGGGGSEIVLTQSPLSLPVTLGQPASISCRSSQNLVYSDGNTYLSWFQQRPGQSPRRLIYKVSNRDSGVPDRFSGSGSGTDFTLKISRVEAEDIGVYYCMQGTHWPPRTFGQGTKVEIKRGLGGLVDYKDDDDK
